Experimental findings from paper PMC11274882, “RNA Binding Properties of SOX Family Members” are described below.

Data set [1] addresses T1, SOX17 dC HMG-box (UniProt Q9H6I2 66-137). The experiment in a line: EMSA; FP: 50 mM Tris, 125 mM NaCl, pH 8.0, 80 nM RNA, temperature not stated; EMSA: equal volumes of 100 uM protein and ssDNA, room temperature 15 min, 1.5% agarose. To be noted: protein: recombinant; tags: 6xHis.
Data set [2] has as its target T2, SOX17 dCN HMG-box (UniProt Q9H6I2 74-137). The data set is described as above. The following applies: protein: recombinant; tags: 6xHis.
Data set [3] addresses SOX17 dN HMG-box (UniProt Q9H6I2 74-145). Described as above. To be noted: protein: recombinant; tags: 6xHis.
The target of data set [4] is T3, SOX17 HMG-box WT (UniProt Q9H6I2 66-145). The data set is described as above. The following applies: protein: recombinant, tags: 6xHis.
T3 sequence (Q9H6I2 66-145): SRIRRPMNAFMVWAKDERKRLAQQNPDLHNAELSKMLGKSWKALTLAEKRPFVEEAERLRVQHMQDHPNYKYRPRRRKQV
Data set [5] concerns the target T1, SOX17 dC HMG-box. Kind of data set: fluorescence polarisation; FP: 50 mM Tris, 125 mM NaCl, pH 8.0, 80 nM RNA, temperature not stated; EMSA: equal volumes of 100 uM protein and ssDNA, room temperature 15 min, 1.5% agarose. To be noted: protein: recombinant; tags: 6xHis; label: 3' FAM; hairpin.
The target in data set [6] is T2, SOX17 dCN HMG-box. The description is as above. To be noted: protein: recombinant; tags: 6xHis; label: 3' FAM; hairpin.
Data set [7] has as its target T4, SOX2 HMG-box (UniProt P48431 39-127). The data set is described as above. The following applies: protein: recombinant; label: 3' FAM; hairpin.
The target of data set [8] is T5, SOX30 HMG-box (UniProt O94993 335-423).
T5 sequence: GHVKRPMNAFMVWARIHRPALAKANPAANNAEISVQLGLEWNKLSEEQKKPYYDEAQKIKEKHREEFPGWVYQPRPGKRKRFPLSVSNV
The description is as above. To be noted: protein: recombinant; tags: 6xHis; label: 3' FAM; hairpin.

The target of data set [9] is T3, SOX17 HMG-box WT. The data set is described as above. To be noted: protein: recombinant; tags: 6xHis; label: 3' FAM; hairpin.
For data set [10], the target named is T4, SOX2 HMG-box. Kind of data set: EMSA; complex stays in well; FP: 50 mM Tris, 125 mM NaCl, pH 8.0, 80 nM RNA, temperature not stated; EMSA: equal volumes of 100 uM protein and ssDNA, room temperature 15 min, 1.5% agarose. To be noted: protein: recombinant; named 60-mer; length as printed may differ.
The target of data set [11] is SOX21 HMG-box (UniProt Q9Y651 6-94). Described as above. To be noted: protein: recombinant; tags: 6xHis; named 60-mer; length as printed may differ.
Sequence of SOX21 HMG-box (Q9Y651 6-94): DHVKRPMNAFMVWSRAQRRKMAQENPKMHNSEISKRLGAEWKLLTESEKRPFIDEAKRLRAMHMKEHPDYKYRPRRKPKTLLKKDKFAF
For data set [12], the target named is SOX11 HMG-box (UniProt P35716 47-135). Kind of data set: EMSA; FP: 50 mM Tris, 125 mM NaCl, pH 8.0, 80 nM RNA, temperature not stated; EMSA: equal volumes of 100 uM protein and ssDNA, room temperature 15 min, 1.5% agarose. The following applies: protein: recombinant; tags: 6xHis; named 60-mer; length as printed may differ.
Sequence of SOX11 HMG-box (P35716 47-135): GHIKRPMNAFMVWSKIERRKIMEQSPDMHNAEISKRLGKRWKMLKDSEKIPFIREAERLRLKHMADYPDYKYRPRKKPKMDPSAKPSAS
Data set [13] concerns the target SOX15 HMG-box (UniProt O60248 47-135). Described as above. To be noted: protein: recombinant; tags: 6xHis; named 60-mer; length as printed may differ.
Data set [14] deals with SRY HMG-box (UniProt Q05066 58-140). The description is as above. To be noted: protein: recombinant; tags: 6xHis; named 60-mer; length as printed may differ.
Sequence of SRY HMG-box (Q05066 58-140): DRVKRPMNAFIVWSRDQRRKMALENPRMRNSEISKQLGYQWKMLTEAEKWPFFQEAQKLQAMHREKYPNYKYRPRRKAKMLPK
For data set [15], the target named is T5, SOX30 HMG-box. The data set is described as above. The following applies: protein: recombinant; tags: 6xHis; named 60-mer; length as printed may differ.
Data set [16] addresses SOX9 HMG-box (UniProt P48436 103-183). The description is as above. To be noted: protein: recombinant; tags: 6xHis; named 60-mer; length as printed may differ.
Data set [17] addresses SOX6 HMG-box (UniProt P35712 619-707). The description is as above. To be noted: protein: recombinant; named 60-mer; length as printed may differ.
For data set [18], the target named is T3, SOX17 HMG-box WT. Kind of data set: NMR HSQC titration; 100 uM protein, 25-100 uM ssDNA; shifts at R125-R138, I68, A74, M76, E97, K100, W106; FP: 50 mM Tris, 125 mM NaCl, pH 8.0, 80 nM RNA, temperature not stated; EMSA: equal volumes of 100 uM protein and ssDNA, room temperature 15 min, 1.5% agarose. To be noted: protein: recombinant; tags: 6xHis.

T4 sequence (P48431 39-127): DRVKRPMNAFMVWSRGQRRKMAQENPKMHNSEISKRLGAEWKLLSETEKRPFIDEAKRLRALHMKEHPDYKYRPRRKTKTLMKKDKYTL
T1 sequence (Q9H6I2 66-137): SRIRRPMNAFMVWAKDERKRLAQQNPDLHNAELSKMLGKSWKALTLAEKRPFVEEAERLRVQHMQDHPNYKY
T2 sequence (Q9H6I2 74-137): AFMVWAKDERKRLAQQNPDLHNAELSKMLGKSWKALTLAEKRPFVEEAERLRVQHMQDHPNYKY
Sequence of SOX15 HMG-box (O60248 47-135): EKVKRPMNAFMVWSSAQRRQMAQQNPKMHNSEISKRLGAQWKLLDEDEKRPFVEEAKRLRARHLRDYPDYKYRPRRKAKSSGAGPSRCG
Sequence of SOX9 HMG-box (P48436 103-183): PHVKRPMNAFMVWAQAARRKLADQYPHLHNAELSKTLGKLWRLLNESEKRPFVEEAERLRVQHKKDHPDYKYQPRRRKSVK
Sequence of SOX6 HMG-box (P35712 619-707): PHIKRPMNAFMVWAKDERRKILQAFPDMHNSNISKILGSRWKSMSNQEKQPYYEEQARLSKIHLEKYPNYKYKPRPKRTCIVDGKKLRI
Sequence of SOX17 dN HMG-box (Q9H6I2 74-145): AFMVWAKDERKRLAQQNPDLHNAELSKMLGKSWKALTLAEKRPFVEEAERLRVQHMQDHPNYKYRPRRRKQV

CCCCATCTTAGTATATTAGTTA (ssDNA) [22-mer ssDNA]: the binding result in [1] is listed as “no binding”; in data set [2], “no binding”; in data set [3] it was “binds”; in [4] it was “binds”.

Consider GGUCGCCGUGGCCACUUCGAAAGGGGUGGAAAGGGCGACC (structured_RNA) [40-mer RNA, ES2 lncRNA hairpin Loop A], for which the binding result in [5], in data set [6] and in data set [8] was “no binding” in each case. Further, the figures for the Kd in [7] and in [9] were approximately 57 nM and approximately 327 nM, respectively.

B1: 60-mer ssDNA (ssDNA)
DNA: GTTAGAGGTGCCCCACAGGCGGCGGTTAGTATTCCCCGCCGCCTGGGGCACCGGGGCAC
B1: the binding result is listed as “binds” in [10]; “binds” in data set [11]; “binds” in data set [12]; “binds” in [13]; “binds” in [14]; “no binding” in [15]. Further, the binding result in [16] is listed as “binds”; in data set [4] (named 60-mer, length as printed may differ), “binds”; in [17], “binds”.

With ATCGATCGATCG (ssDNA) [12-mer ssDNA], the binding result in data set [18] was “binds”.
